From patent US20040091878

Columns and labels:
Assay in all cases: EMSA
[1] = system: Clone 6 ZFP (6-finger) (artificial); settings: probe flanks not given; 0.1 mM ZnCl2
[2] = system: Clone 7 ZFP (6-finger) (artificial); settings: probe flanks not given; Table 5 prints TAGGTGGCATTGGGTGCTC, listing SEQ 67 tacgtggcattgggtgctc
[3] = system: Clone 5 ZFP (BCTV whole L1, 6-finger) (artificial); settings: probe 0.03 fmol per 10 ul; vast majority bound at 3 pM; 0.1 mM ZnCl2

AGTAAGGTAGGAGATGATA (double strand) [Clone 6 target]
Kd [1]: < 3 pM

TACGTGGCATTGGGTGCTC (double strand) [Clone 7 target]
Kd [2]: < 3 pM

TATATATATTGGGTGCTTTGGGTGCTCTATATATA (double strand) [BCTV whole L1 probe]
Kd [3]: < 3 pM
